From article PMC3414502 (2012) come the findings set out here.

This experiment addresses PLCβ2 (Homo sapiens, UniProt Q00722). The experiment in a line: fluorescence titration.

Sequence of PLCβ2 (Q00722 whole entry): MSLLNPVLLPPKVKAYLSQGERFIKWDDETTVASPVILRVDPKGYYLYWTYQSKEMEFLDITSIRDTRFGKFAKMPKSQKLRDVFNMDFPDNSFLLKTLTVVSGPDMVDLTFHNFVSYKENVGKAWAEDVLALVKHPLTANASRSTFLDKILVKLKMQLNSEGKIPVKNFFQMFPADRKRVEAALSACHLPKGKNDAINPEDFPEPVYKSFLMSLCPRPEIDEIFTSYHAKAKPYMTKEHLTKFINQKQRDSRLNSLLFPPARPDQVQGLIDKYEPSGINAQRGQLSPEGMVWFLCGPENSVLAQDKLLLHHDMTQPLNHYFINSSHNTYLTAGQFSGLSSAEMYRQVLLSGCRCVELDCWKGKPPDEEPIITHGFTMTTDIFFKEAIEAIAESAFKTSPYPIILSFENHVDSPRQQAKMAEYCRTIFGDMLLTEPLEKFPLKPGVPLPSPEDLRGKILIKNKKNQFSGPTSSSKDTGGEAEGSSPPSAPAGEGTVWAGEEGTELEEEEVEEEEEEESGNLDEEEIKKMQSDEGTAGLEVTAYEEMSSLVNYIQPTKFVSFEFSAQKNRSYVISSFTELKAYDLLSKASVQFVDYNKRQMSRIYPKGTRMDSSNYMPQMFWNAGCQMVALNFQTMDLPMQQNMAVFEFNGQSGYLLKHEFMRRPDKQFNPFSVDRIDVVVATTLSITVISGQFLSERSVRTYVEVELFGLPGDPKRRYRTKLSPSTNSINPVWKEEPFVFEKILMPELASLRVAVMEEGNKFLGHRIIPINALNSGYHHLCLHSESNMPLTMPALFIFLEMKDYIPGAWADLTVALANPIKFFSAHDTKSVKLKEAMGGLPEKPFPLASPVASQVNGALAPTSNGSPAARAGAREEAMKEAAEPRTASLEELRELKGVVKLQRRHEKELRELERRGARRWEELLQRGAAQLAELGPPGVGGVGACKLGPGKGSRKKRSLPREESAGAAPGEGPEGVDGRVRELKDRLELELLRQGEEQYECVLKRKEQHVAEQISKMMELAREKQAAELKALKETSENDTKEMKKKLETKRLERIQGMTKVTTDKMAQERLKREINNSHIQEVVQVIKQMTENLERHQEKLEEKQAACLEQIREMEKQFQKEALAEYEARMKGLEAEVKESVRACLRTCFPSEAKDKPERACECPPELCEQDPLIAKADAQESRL

B1: Gαq (activated) (protein)
chain: MTLESIMACCLSEEAKEARRINDEIERQLRRDKRDARRELKLLLLGTGESGKSTFIKQMRIIHGSGYSDEDKRGFTKLVYQNIFTAMQAMIRAMDTLKIPYKYEHNKAHAQLVREVDVEKVSAFENPYVDAIKSLWNDPGIQECYDRRREYQLSDSTKYYLNDLDRVADPSYLPTQQDVLRVRVPTTGIIEYPFDLQSVIFRMVDVGGQRSERRKWIHCFENVTSIMFLVALSEYDQVLVESDNENRMEESKALFRTIITYPWFQNSSVILFLNKKDLLEEKIMYSHLVDYFPEYDGPQRDAQAAREFILKMFVDLNPDSDKIIYSHFTCATDTENIRFVFAAVKDTILQLNLKEYNLV
modifications: activated Gαq, with γ-synuclein
The term Kd denotes the free concentration of one partner at which half of the binding sites on the other are occupied at equilibrium, for simple one-to-one binding. In the case of B1, the Kd is 0.9 nM.
